Assay results reported in paper PMC5398634.

Target: Erwinia amylovora AmyR (Erwinia amylovora strain CFBP1430)
Test: crystal structure; native AmyR at 8 mg/ml, sitting-drop vapour diffusion, 0.1 M sodium cacodylate pH 6.9, 0.2 M magnesium chloride, 46% (v/v) PEG 200, 293 K; 1.95 Å, space group P 2(1)2(1)2; homodimer in the asymmetric unit

## Erwinia amylovora AmyR (natural protein)
  stoichiometry N: 2
